Data published in article PMC8024308, “Epitope-directed monoclonal antibody production using a mixed antigen cocktail facilitates antibody characterization and validation” (Communications Biology, 2021).

Molecular target: the molecule itself
Test: ELISA; two-site sandwich ELISA with the same mAb (30D12 or 4F2) as coated capture (5 ug/ml) and as biotinylated detector (1 ug/ml); recombinant hANKRD1 at 20 ng/ml; self-pairing read as dimer

B1: recombinant human ankyrin repeat domain 1 (hANKRD1; OriGene Technologies) (natural protein)
chain: not shown
notes: human ankyrin repeat domain 1 (ANKRD1), full-length recombinant protein, N-terminal His-tagged, OriGene Technologies; expected mass 43 kDa; The preparation holds monomer (43 kDa) and dimer (86 kDa) on non-reducing SDS-PAGE; also called recombinant hANKRD1; source: bought: OriGene Technologies (bacterially derived recombinant preparation)
binding result: binds
